Experimental data taken from patent US20060212953, “Tr2, tr4, tr2/tr4 double knockouts and uses thereof” (published 2006).

Molecular target: T1, TR4 (testicular orphan nuclear receptor 4, NR2C2) (UniProt P49116 SEQ:1-596)
T1 sequence: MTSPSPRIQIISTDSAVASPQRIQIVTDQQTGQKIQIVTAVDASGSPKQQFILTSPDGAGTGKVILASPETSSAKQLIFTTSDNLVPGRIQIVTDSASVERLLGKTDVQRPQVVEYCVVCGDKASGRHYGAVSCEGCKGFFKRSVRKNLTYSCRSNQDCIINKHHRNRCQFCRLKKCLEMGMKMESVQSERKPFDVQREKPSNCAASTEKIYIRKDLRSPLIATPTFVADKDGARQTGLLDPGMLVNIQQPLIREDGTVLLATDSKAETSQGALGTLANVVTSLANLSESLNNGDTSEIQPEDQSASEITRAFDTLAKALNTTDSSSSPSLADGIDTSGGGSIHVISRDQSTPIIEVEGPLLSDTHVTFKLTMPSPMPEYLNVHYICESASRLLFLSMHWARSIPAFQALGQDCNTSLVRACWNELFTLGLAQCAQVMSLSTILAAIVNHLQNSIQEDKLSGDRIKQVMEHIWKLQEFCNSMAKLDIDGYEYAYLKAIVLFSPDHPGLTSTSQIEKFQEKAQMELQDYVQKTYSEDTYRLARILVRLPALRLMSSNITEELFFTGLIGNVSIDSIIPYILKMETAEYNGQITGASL
Assay: EMSA; supershifted by monoclonal anti-TR4 antibody #15; 10 mM HEPES pH 7.9, 100 mM KCl, 2.5 mM MgCl2, 0.5 mM EDTA, 1 mM DTT, room temperature 15 min
Conditions: tags: rabbit reticulocyte lysate (Promega); label: 32P 5' end
Protocol: TR4 proteins were synthesized in rabbit reticulocyte lysate (Promega), according to the manufacturer's instructions. The oligonucleotide probe (SEQ ID NO:46 nNOS-NHR, bp-198 to -211, 5′-[…]-3′) was end-labeled with [γ]³²P in a T4 polynucleotide kinase reaction (New England Biolabs). The EMSA reaction was performed with 2 μl TR4-containing lysate in an EMSA buffer (10 mM HEPES, pH 7.9, 6% (v/v) glycerol, 2% (v/v) Ficoll, 100 mM KCl, 0.5 mM EDTA, 2.5 mM MgCl₂, and 1 mM dithiothreitol). The reaction mixtures were incubated for 15 min. at room temperature, in the presence or absence of a mouse monoclonal anti-TR4 antibody (#15). The protein-DNA complexes were analyzed on a 5% native polyacrylamide gel. The results were visualized by autoradiography (Storm PhosphorImaging System, Amersham Pharmacia).

B1: nNOS-NHR probe (dsDNA)
DNA 1: CTGGTCAACCTTGACTTCCTT
DNA 2: AAGGAAGTCAAGGTTGACCAG
Q: Does B1 bind?
A: binds
